The labels stand for the following.
B1: DNA damage-inducible transcript 3 protein (Homo sapiens), P35638 (parent)
chain: MAAESLPFSFGTLSSWELEAWYEDLQEVLSSDENGGTYVSPPGNEEEESKIFTTLDPASLAWLTEEEPEPAEVTSTSQSPHSPDSSQSSLAQEEEEEDQGRTRKRKQSGHSPARAGKQRMKEKEQENERKVAQLAEENERLKQEIERLTREVEATRRALIDRMVNLHQA
B2: Ubiquitin-associated protein 2-like (Homo sapiens), Q14157 (parent)
chain: MMTSVGTNRARGNWEQPQNQNQTQHKQRPQATAEQIRLAQMISDHNDADFEEKVKQLIDITGKNQDECVIALHDCNGDVNRAINVLLEGNPDTHSWEMVGKKKGVSGQKDGGQTESNEEGKENRDRDRDYSRRRGGPPRRGRGASRGREFRGQENGLDGTKSGGPSGRGTERGRRGRGRGRGGSGRRGGRFSAQGMGTFNPADYAEPANTDDNYGNSSGNTWNNTGHFEPDDGTSAWRTATEEWGTEDWNEDLSETKIFTASNVSSVPLPAENVTITAGQRIDLAVLLGKTPSTMENDSSNLDPSQAPSLAQPLVFSNSKQTAISQPASGNTFSHHSMVSMLGKGFGDVGEAKGGSTTGSQFLEQFKTAQALAQLAAQHSQSGSTTTSSWDMGSTTQSPSLVQYDLKNPSDSAVHSPFTKRQAFTPSSTMMEVFLQEKSPAVATSTAAPPPPSSPLPSKSTSAPQMSPGSSDNQSSSPQPAQQKLKQQKKKASLTSKIPALAVEMPGSADISGLNLQFGALQFGSEPVLSDYESTPTTSASSSQAPSSLYTSTASESSSTISSNQSQESGYQSGPIQSTTYTSQNNAQGPLYEQRSTQTRRYPSSISSSPQKDLTQAKNGFSSVQATQLQTTQSVEGATGSAVKSDSPSTSSIPPLNETVSAASLLTTTNQHSSSLGGLSHSEEIPNTTTTQHSSTLSTQQNTLSSSTSSGRTSTSTLLHTSVESEANLHSSSSTFSTTSSTVSAPPPVVSVSSSLNSGSSLGLSLGSNSTVTASTRSSVATTSGKAPPNLPPGVPPLLPNPYIMAPGLLHAYPPQVYGYDDLQMLQTRFPLDYYSIPFPTPTTPLTGRDGSLASNPYSGDLTKFGRGDASSPAPATTLAQPQQNQTQTHHTTQQTFLNPALPPGYSYTSLPYYTGVPGLPSTFQYGPAVFPVAPTSSKQHGVNVSVNASATPFQQPSGYGSHGYNTGVSVTSSNTGVPDISGSVYSKTQQSFEKQGFHSGTPAASFNLPSALGSGGPINPATAAAYPPAPFMHILTPHQQPHSQILHHHLQQDGQTGSGQRSQTSSIPQKPQTNKSAYNSYSWGAN

One test covers variants of B1. The settings on record: with G3BP1, Q13283.
Target sequence in this assay (Q13283 whole entry, looked up): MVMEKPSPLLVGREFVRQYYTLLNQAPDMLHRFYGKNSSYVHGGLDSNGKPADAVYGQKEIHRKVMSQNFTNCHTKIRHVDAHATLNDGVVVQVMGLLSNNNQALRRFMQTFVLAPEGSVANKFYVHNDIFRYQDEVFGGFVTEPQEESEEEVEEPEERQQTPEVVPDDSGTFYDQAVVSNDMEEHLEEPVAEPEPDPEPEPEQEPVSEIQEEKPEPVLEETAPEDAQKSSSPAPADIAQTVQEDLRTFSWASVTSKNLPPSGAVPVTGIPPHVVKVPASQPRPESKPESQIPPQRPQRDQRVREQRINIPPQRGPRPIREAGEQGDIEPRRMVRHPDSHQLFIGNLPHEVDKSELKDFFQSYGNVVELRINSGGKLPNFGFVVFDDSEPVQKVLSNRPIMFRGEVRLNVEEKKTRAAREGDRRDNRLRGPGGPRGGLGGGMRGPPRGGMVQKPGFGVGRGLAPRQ
Turning to F10A;G11A, the “effect of a mutation on the interaction” value is given as “disrupting interaction strength”.

The variants in a further test derive from B2. The settings on record: with G3BP1, Q13283.
Target sequence in this assay (Q13283 whole entry, looked up): as above
As to F518A;F523A, the “effect of a mutation on the interaction” value is recorded as “disrupting interaction strength”.

A further test covers variants of B2. The settings on record: with G3BP1, Q13283. The source holds these as a separate data set.
Target sequence in this assay (Q13283 whole entry, looked up): as above
On to F518A;F523A, for which the “effect of a mutation on the interaction” value was “decreasing interaction strength”.

The values above are taken from IntAct's records for PubMed 34799561.
